Experimental data from the supplement of paper PMC11908140.

B1: library; numbered along this chain (parent)
chain: MRKPRAAVGSGHRKQAASQEGRQKHAKNNSQAKPSACDGLARQPEEVVLQASVSSYHLFRDVAEVTAFRGSLLSWYDQEKRDLPWRRRAEDEMDLDRRAYAVWVSEVMLQQTQVATVINYYTGWMQKWPTLQDLASASLEEVNQLWAGLGYYSRGRRLQEGARKVVEELGGHMPRTAETLQQLLPGVGRYTAGAIASIAFGQATGVVDGNVARVLCRVRAIGADPSSTLVSQQLWGLAQQLVDPARPGDFNQAAMELGATVCTPQRPLCSQCPVESLCRARQRVEQEQLLASGSLSGSPDVEECAPNTGQCHLCLPPSEPWDQTLGVVNFPRKASRKPPREESSATCVLEQPGALGAQILLVQRPNSGLLAGLWEFPSVTWEPSEQLQRKALLQELQRWAGPLPATHLRHLGEVVHTFSHIKLTYQVYGLALEGQTPVTTVPPGARWLTQEEFHTAAVSTAMKKVFRVYQGQQPGTCMGSKRSQVSSPCSRKKPRMGQQVLDNFFRSHISTDAHSLNSAAQ

Variants of: B1
Experiment: 8OG:A repair function score (normalized; synonymous = 0, nonsense = -1) (normalized log-likelihood score); higher = more repair activity (WT-like)
Conditions: with 8OG:A DNA repair reporter (GFP) in HEK-293 MUTYH KO cells
In short: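 Lentiviral MUTYH cDNA NNN codon-scan libraries were expressed in MUTYH knockout HEK-293 cells with 10 pg/ml doxycycline, and the cells received an 8OG:A GFP repair reporter together with mCherry. At 72 h, viable mCherry+ cells went into GFP+ (repair) or GFP− bins, three replicates per tile, before tile amplicons were sequenced. A repair function score was then built from per-tile Rosace fitness scores, anchored on the synonymous and nonsense distributions. Synonymous medians sat at 0 and nonsense at -1, and variants under 300 counts per million at the start were left out.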
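Also: cells sorted at 72 h after reporter transfection.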

8OG:A repair function score of substitutions, site by site:
S510: N -0.0738 | P 0.0141 | W -0.046 | R 0.00127 | M -0.0272 | C -0.0307 | I -0.0731 | D -0.0311 | F -0.00526 | L 0.0205 | A -0.00841 | T 0.00117 | Q -0.053 | Y -0.0344 | K -0.00453 | V -0.00843 | G -0.0202 | E -0.0364 | H 0.0212
A513: Q 0.0184 | L -0.00457 | T 0.000215 | Y -0.00892 | N 0.0128 | G 0.0049 | D 0.0137 | S 0.00165 | K 0.0278 | H -0.0076 | P -0.0105 | R 0.00911 | W -0.0476 | F -0.00203 | C -0.00572 | I 0.00892 | V -0.0254 | E -0.0288 | M -0.0173
V500: Q 0.00719 | E 0.0219 | Y -0.00833 | K -0.0181 | G 0.00844 | D -0.00453 | C -0.0118 | H 0.0251 | N -0.0108 | A 0.00946 | P -0.0532 | L 0.00153 | F -0.0131 | R 0.00797 | W -0.015 | M 0.0185 | S 0.00727 | T 0.02 | I 0.0202
D502: A -0.0186 | Y -0.0488 | N 0.011 | K -0.00432 | I -0.0355 | S -0.0153 | V -0.0389 | C -0.00279 | E -0.0204 | M -0.0464 | W -0.0396 | G -0.00456 | T 0.00564 | Q -0.0749 | L -0.0337 | R 0.0187 | P -0.0101 | H -0.0311 | F -0.0425
R506: V -0.0196 | F -0.0582 | Q -0.052 | K 0.0152 | P 0.0202 | I 0.0189 | L 0.00814 | D 0.0134 | S 0.00235 | C 0.0164 | E 0.0109 | G -0.0057 | W -0.0815 | N 0.00916 | Y 0.0145 | T 0.0259 | A -0.0637
S515: L -0.00831 | W -0.0167 | P -0.0381 | T -0.00495 | N 0.0152 | R 0.00703 | G -0.000426 | Q -0.00958 | H -0.0115 | I -0.0207 | D -0.0425 | A -0.018 | V 0.00837 | M -0.00894 | C -0.0274 | F -0.00769 | Y 0.025 | E 0.0198 | K -0.00207
F504: Q -0.00826 | M 0.0285 | N 0.023 | E 0.0256 | S 0.0238 | H 0.0204 | K -0.0046 | T 0.0122 | P -0.0247 | W -0.0289 | C -0.00333 | V -0.00446 | G -0.0353 | I 0.00771 | D 0.0276 | L 0.0067 | Y 0.0257 | A 0.00928 | R -0.00117
N503: Q 0.0112 | P -0.000934 | S -0.019 | D -0.0599 | I -0.0307 | H -0.0815 | L 0.00339 | Y -0.0151 | V -0.0118 | K -0.0135 | M -9.05e-05 | W -0.011 | E 0.0211 | T 0.00666 | F 0.0039 | A 0.0125 | R -0.0109 | G 0.00621 | C 0.00549
I509: A 0.0157 | L 0.00266 | P 0.0272 | H 0.0112 | Y -0.0704 | K -0.00442 | C -0.00892 | N 0.0286 | G -0.00592 | Q 0.0194 | T 0.026 | F -0.0535 | D -0.00523 | R -0.0323 | W -0.00561 | S 0.0252 | E 0.0145 | V 0.0164 | M -0.0347
H508: G -0.00256 | R -0.0128 | T 0.0103 | F -0.00232 | M -0.0245 | L -0.0429 | P 0.00413 | W 0.018 | K -0.0603 | D -0.000798 | E 0.0183 | Q 0.000578 | N -0.00695 | Y 0.0034 | A -0.00475 | S -0.00585 | C -0.0231 | V -0.0097 | I -0.0148
L516: C 0.00795 | E 0.0196 | A 0.017 | D -0.0107
S507: F -0.0917 | L -0.0301 | M -0.0199 | Q -0.0688 | K -0.0064 | P 0.0118 | G -0.00119 | V -0.000918 | C -0.0153 | Y -0.141 | T 0.0162 | I -0.0448 | A -0.0386 | D -0.0424 | W -0.0429 | N -0.0395 | H -0.084 | R -0.00355 | E 0.000264
L501: S 0.0215 | W -0.00606 | Q 0.02 | E 0.0149 | V 0.00157 | A 0.00122 | R 0.00197 | K -0.0877 | G 0.00711 | H 0.0143 | F 0.0198 | P 0.0273 | I -0.0198 | N -0.0105 | M 0.0114 | T -0.0124 | D 0.00991 | Y -0.0132 | C -0.00326
D512: M -0.033 | R -7.7e-05 | C 0.0193 | F -0.0699 | K -0.0591 | E -0.0165 | I -0.0146 | H -0.0208 | S -0.0201 | L -0.0115 | N -0.0198 | T -0.0649 | Q -0.02 | G -0.00398 | Y -0.0038 | V 0.00239 | W -0.023 | A -0.0123 | P -0.0253
H514: W -0.03 | R -0.0107 | A -0.021 | K 0.0132 | N 0.00779 | F -0.0319 | G 0.0114 | M -0.00625 | I -0.00558 | V 0.0053 | C -0.00794 | T -0.02 | Q 0.00808 | S -0.0171 | L -0.0137 | D -0.0358 | P -0.00868 | E -0.0112 | Y -0.00319
Q498: P -0.0275 | V 0.00262 | Y 0.0174 | S 0.0168 | R 0.0169 | N -0.0368 | L -0.00389 | M -0.0277 | T 0.0263 | W 0.0137
T511: A -0.038 | D -0.0938 | E -0.0321 | H 0.0209 | F -0.00618 | K -0.00393 | V -0.00751 | Q 0.0207 | I -0.0251 | R 0.00505 | P -0.0422 | S -0.0121 | W -0.0217 | Y 0.0102 | C -0.014 | L -0.0126 | M -0.0046 | G 0.00111 | N -0.0682
F505: N 0.0264 | A 0.00138 | V 0.00446 | G 0.00871 | L 0.0157 | C 0.0238 | I 0.0133 | R 0.016 | Y 0.00392 | T 0.0174 | K -0.0487 | P 0.0167 | D 0.0229 | M -0.0487 | Q 0.0246 | S 0.0199 | W 0.00244 | H -0.0303
Q499: I 0.0124 | Y -0.045 | V 0.0113 | E 0.0257 | D -0.0217 | W -0.0171 | S 0.00646 | T -0.00713 | P 0.0119 | M 0.00183 | H 0.0243 | A -0.02 | N -0.0201 | R -0.0243 | C 0.00111 | F -0.00963 | K -0.00715 | L 0.00129 | G -0.0117
